Test [1] addresses T1, C5 beta chain (Homo sapiens, UniProt P01031).
T1 construct: Lane 1: 100 ng of C5 alpha chain; lane 2: 100 ng of beta chain; purchased Quidel
T1 sequence (P01031 19-673 limits assumed): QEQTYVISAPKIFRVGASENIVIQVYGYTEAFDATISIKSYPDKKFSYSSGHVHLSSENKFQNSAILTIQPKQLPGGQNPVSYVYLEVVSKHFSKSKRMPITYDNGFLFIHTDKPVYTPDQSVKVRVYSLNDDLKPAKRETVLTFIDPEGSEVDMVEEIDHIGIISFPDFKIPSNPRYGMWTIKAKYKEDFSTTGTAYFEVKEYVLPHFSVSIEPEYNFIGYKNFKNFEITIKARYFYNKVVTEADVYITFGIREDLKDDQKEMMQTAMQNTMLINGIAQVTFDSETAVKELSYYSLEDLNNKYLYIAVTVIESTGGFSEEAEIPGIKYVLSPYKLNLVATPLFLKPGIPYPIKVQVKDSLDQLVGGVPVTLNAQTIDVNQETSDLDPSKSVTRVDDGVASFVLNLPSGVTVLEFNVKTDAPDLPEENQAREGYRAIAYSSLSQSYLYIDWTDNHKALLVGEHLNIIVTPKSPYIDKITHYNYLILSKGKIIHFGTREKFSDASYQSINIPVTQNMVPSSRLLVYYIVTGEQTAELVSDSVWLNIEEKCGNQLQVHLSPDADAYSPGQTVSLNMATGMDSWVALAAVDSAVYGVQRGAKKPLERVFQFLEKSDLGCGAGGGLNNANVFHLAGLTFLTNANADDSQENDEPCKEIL
Nature of the test: Immunoblotting on separated C5 chains. Type of test: binding. To be noted: 100 ng chain, FIG. 2 lane 2. As to the method: (§1) The alpha and beta chains of C5 were electrophoretically separated by means of SDS-PAGE in 10% polyacrylamide and then transferred onto nitrocellulose. […] Lane 1: 100 ng of C5 alpha chain; lane 2: 100 ng of beta chain; lane 3: mixture of the two chains. […] It can be seen that scFv TSA-12/22 recognises the alpha chain of C5 in lane 1, but not the beta chain in lane 2.
(§2) Purified proteins. Purified components C4 to C9 were purchased from Quidel (Saint Diego, Calif.) and the human recombinant C5a component was purchased from SIGMA-ALDRICH® S.r.1. (Milan, Italy). C5 alpha and beta subunits were obtained by incubating 50 μg of C5 diluted in 0.55 M TRIS-HCl pH 8.1 containing DTT (0.02 M) for 30 min at room temperature (RT), followed by treatment with iodoacetamide (0.12 M) for 1 hour at RT. Alpha and beta chains were purified by gel filtration on Superose 12 (Pharmacia Biotech, Milan, Italy) in Fast Protein Liquid Chromatography (FPLC) and purity was assessed by SDS-PAGE in non-reducing conditions.
(§3) It was first characterised, by means of the Western-blotting technique, whether the TS-A12/22 antibody recognises the alpha or beta of subunit of the C5 complement component prepared as described in Materials. Briefly the two subunits were electrophoresed in separate wells and transferred on nitrocellulose membranes. A solution containing Tris 50 mM pH 7.6, 0.5 M NaCl and 4% skimmed powder milk was used to block non-specific sites for 1 hour at 37° C. […] The enzymatic reaction was developed with blue tetrazolium and 5-bromo-4-chlorine-3-indolil phosphate (SIGMA-ALDRICH®, 0.30 mg/ml) diluted in 0.1 M Tris-HCl pH 9.5 containing 0.1 M NaCl and 5 mM MgCl2. Rainbow RPN 756 ([…]™ Italy (a trademark of General Electric Healthcare Limited)) were used as molecular weight markers.

Test [2] concerns the target T2, C5 alpha chain (Homo sapiens, UniProt P01031).
T2 construct: Lane 1: 100 ng of C5 alpha chain; lane 2: 100 ng of beta chain; purchased Quidel
Description: Immunoblotting on separated C5 chains. Type of test: binding. To be noted: 100 ng chain, FIG. 2 lane 1. As to the method: as §1, §2, §3

The target of test [3] is T3, C5 (Homo sapiens, UniProt P01031).
T3 construct: C5 alpha and beta subunits were obtained by incubating 50 μg of C5; purchased Quidel
Nature of the test: Hemolytic assay, classical pathway (EAC1-3b sheep erythrocytes). Type of test: biochemical. The conditions noted are these: 600 ng scFv, increasing amounts of C5, FIG. 4A. The method, then:
(§4) Values from spectrophotometric reading performed at 412 nm to measure inhibition of lysis of sheep erythrocytes coated with EAC1-3b, through the classical complement activation pathway (A Panel); or of rabbit erythrocytes in order to measure the alternative pathway of complement activation (B Panel). Increasing amounts of C5 were mixed with 600 ng of the scFv antibody of the invention with an unrelated scFv, or with GVBS in which the scFv of the invention were solubilised, as described in example 9. After incubation with serum lacking in C5, obtained from a patient with selective deficiency of this complement component, the percentage of hemolysis was measured compared to the 100% value obtained by lysing erythrocytes in an equal volume of distilled H2O and a blank obtained by resuspending eythrocytes in GBVS. Having assessed the characteristics of the inhibition of the classical activation pathway of factor C5 by the TS-A12/22 antibody, it was then verified whether there was inhibition also of the alternative pathway of C5 activation, and at which level. […] After incubation for 30 minutes at 37° C., the percentage of erythrocyte lysis was measured by comparison to a 100% value obtained by lysing erythrocytes with an equal volume of distilled of H2O and to a blank consisting of erythrocytes re-suspended in GBVS. […]

Test [4] addresses T3, C5. Nature of the test: Hemolytic assay, alternative pathway (rabbit erythrocytes). Type of test: biochemical. The conditions noted are these: 600 ng scFv, increasing amounts of C5, FIG. 4B. As to the method: as §4

T3 sequence (P01031 678-1676 limits assumed, one chain of several): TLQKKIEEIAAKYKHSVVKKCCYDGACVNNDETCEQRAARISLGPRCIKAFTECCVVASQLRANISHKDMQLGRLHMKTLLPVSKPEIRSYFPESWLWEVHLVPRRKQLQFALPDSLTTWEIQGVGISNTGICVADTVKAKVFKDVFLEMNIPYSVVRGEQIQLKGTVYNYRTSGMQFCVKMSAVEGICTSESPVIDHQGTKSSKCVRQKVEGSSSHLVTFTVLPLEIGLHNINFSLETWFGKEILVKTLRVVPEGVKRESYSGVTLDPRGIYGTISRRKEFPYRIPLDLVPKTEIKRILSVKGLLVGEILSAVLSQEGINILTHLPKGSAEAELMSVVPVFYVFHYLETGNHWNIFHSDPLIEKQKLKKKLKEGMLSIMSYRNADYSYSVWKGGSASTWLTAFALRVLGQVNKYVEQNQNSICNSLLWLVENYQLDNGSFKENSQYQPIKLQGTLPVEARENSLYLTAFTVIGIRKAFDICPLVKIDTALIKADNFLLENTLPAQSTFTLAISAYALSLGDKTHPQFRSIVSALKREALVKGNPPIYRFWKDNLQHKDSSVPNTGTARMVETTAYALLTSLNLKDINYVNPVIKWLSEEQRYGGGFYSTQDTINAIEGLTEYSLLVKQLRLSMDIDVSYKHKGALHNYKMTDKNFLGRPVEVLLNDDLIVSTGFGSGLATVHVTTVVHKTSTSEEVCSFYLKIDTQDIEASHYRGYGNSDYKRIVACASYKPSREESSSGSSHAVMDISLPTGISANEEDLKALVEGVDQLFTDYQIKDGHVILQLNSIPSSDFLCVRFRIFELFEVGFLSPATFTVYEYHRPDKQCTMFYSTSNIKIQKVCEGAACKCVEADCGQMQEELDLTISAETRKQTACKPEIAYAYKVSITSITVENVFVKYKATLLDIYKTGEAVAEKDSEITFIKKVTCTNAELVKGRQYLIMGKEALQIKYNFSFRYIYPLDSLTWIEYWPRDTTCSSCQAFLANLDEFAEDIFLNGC
T2 sequence (P01031 678-1676 limits assumed): as the sequence (P01031 678-1676 limits assumed, one chain of several) above

B1: TS-A12/22: anti-C5 scFv obtained from TS-A12 by VL chain shuffling; VH3/V-48 and Vλ3/V2-14; amino acid sequence SEQ ID NO:6 (protein, listed as Homo sapiens)
scFv: DIRMTQSPDSLAVSLGERATINCKSSQSVLYSSNNKNYLAWYQQKPGQPPKLLIYWASTRESGVPDRFSGSGSGTDFTLTISSLQAEDVAVYYCQQYYSTPQLTFGGRTKVDIKSGGSTITSYNVYYTKLSSSGTQVQLQQSEGGVVQPGRSLRLSCAASGFTFSSYGMNWVRQAPGKGLEWVSYISSSSSTIYYADSVKGRFTISRDNSKNTLYLQMNSLRAEDTAVYYCARGPGMDVWGQGTTVTVSS
B1: the “recognition of C5 beta sub-unit” value in test [1] was “does not recognise”; in test [1] (listed as TSA-12/22) it was “not”. In addition, the “recognition of C5 alpha sub-unit” value in test [2] was “recognises”. Also, the “inhibition of erythrocyte lysis through the classical pathway” value in test [3] is on record as “inhibits”. Further, the “inhibition of lysis of rabbit erythrocytes through the alternative pathway” value in test [4] is on record as “inhibits”.
